For one protein, Km results are on record in paper PMC4414724.

Substrate in the series: OCCCCCO
Put plainly: Reactions of horse liver ADH1E with 1,5-pentanediol and 5-hydroxypentanal. It is filed as biochemical. The following applies: pH 7.0; 25.0 °C.

B1: horse liver ADH1E (Equus caballus) (protein)
chain: STAGKVIKCKAAVLWEEKKPFSIEEVEVAPPKAHEVRIKMVATGICRSDDHVVSGTLVTPLPVIAGHEAAGIVESIGEGVTTVRPGDKVIPLFTPQCGKCRVCKHPEGNFCLKNDLSMPRGTMQDGTSRFTCRGKPIHHFLGTSTFSQYTVVDEISVAKIDAASPLEKVCLIGCGFSTGYGSAVKVAKVTQGSTCAVFGLGGVGLSVIMGCKAAGAARIIGVDINKDKFAKAKEVGATECVNPQDYKKPIQEVLTEMSNGGVDFSFEVIGRLDTMVTALSCCQEAYGVSVIVGVPPDSQNLSMNPMLLLSGRTWKGAIFGGFKSKDSVPKLVADFMAKKFALDPLITHVLPFEKINEGFDLLRSGESIRTILTF
One may read the Km as the concentration of substrate that gives half-maximal velocity. With B1, the Michaelis constant (Km) is 21 mM.
